Holding throughout (test): purified protein
Conditions in all cases: optimal conditions (optimum pH 8.0, 30 °C), substrate range stated 0.2–2.4 mM

The test system of data set [1] is C#CCOC(=O)[C@@H](C)Oc1ccc(Oc2ncc(Cl)cc2F)cc1.
Data set [2] relates to CCCCOC(=O)[C@@H](C)Oc1ccc(Oc2ccc(C#N)cc2F)cc1.
In data set [3] the test system is CCOC(=O)[C@@H](C)Oc1ccc(Oc2nc3ccc(Cl)cc3o2)cc1.
Data set [4] has as its system COC(=O)[C@@H](C)Oc1ccc(Oc2ncc(C(F)(F)F)cc2Cl)cc1.
For data set [5], the system named is C[C@@H](Oc1ccc(Oc2cnc3cc(Cl)ccc3n2)cc1)C(=O)OCC1CCCO1.

By Km is commonly meant the concentration of substrate that gives half-maximal velocity. What is called kcat is the maximal rate divided by the concentration of active sites. What is called kcat/Km is the second-order rate constant that governs catalysis at low substrate concentration. For the substance QpeH (Pseudomonas sp.), the Km in data set [1] turned out to be 174.0 ± 4.2 µM; in data set [2], 158.2 ± 3.5 µM; in data set [3] it was 26.9 ± 4.3 µM; in data set [4], 113.9 ± 3.8 µM; in data set [5], 29.5 ± 2.7 µM. Also, the kcat in data set [1] came to 37.1 ± 2.9 s⁻¹; in data set [2], 41.1 ± 4.1 s⁻¹; in data set [3], 162 ± 3.4 s⁻¹; in data set [4], 67.4 ± 2.6 s⁻¹; in data set [5], 146 ± 3.3 s⁻¹. Further, the kcat/Km in data set [1] is 210000 ± 20000 M⁻¹ s⁻¹; in data set [2] it was 260000 ± 30000 M⁻¹ s⁻¹; in data set [3] it was 6.01e+06 ± 50000 M⁻¹ s⁻¹; in data set [4] it was 590000 ± 40000 M⁻¹ s⁻¹; in data set [5], 4.96e+06 ± 90000 M⁻¹ s⁻¹.

Source of the values: PMC5424357.
